{"source": "patent US20240294595A1", "about": "(ARIZONA BOARD OF REGENTS ON BEHALF OF THE UNIVERSITY OF …, published 2024)", "binders": {"B1": {"name": "HsDGIFTDSYSRYRKQÑAVKKYLAAV-Ser(Glc) (peptide)", "peptide": "HSDGIFTDSYSRYRKQXAVKKYLAAVS", "modifications": "D-Serine at 2 (s); L-Nor-Leucine at 17 (Ñ, written X in letters); Ser 27 = L-Ser(β-D-Glc)"}, "B2": {"name": "HsDGIFADSYSRYRKQÑAVKKYLAAV-Ser(Glc) (peptide)", "peptide": "HSDGIFADSYSRYRKQXAVKKYLAAVS", "modifications": "D-Serine at 2 (s); L-Nor-Leucine at 17 (Ñ, written X in letters); Ser 27 = L-Ser(β-D-Glc)"}, "B3": {"name": "HsDGIFTDSYSRYRKQÑAVKKYLAAVL-Ser(Glc) (peptide)", "peptide": "HSDGIFTDSYSRYRKQXAVKKYLAAVLS", "modifications": "D-Serine at 2 (s); L-Nor-Leucine at 17 (Ñ, written X in letters); Ser 28 = L-Ser(β-D-Glc)"}, "B4": {"name": "HsDGIFADSYSRYRKQÑAVKKYLAAVL-Ser(Glc) (peptide)", "peptide": "HSDGIFADSYSRYRKQXAVKKYLAAVLS", "modifications": "D-Serine at 2 (s); L-Nor-Leucine at 17 (Ñ, written X in letters); Ser 28 = L-Ser(β-D-Glc)"}}, "note": "Where no end group is shown, it is not given here. [ ]: non-standard residue; d: D form. The star is where a group is joined. βGlc = OC[C@H]1O[C@@H](*)[C@H](O)[C@@H](O)[C@@H]1O; Nle = CCCC[C@H](N)C(=O)O", "data": [{"molecular_target": "T1, VPAC1", "T1 sequence (P32241 whole entry, species assumed, looked up)": "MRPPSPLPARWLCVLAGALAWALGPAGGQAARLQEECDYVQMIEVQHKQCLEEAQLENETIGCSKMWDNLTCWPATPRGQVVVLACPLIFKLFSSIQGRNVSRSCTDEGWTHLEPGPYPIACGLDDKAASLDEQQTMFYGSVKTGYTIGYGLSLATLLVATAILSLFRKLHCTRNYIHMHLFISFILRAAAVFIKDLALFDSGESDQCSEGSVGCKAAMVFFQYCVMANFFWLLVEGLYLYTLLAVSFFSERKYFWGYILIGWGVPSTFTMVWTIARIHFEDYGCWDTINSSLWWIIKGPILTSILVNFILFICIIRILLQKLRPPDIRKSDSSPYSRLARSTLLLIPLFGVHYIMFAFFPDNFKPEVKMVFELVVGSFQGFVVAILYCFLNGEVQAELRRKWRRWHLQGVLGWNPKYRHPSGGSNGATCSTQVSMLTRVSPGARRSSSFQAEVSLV", "test": "cell-based or functional assay", "units": {"EC50 (agonist)": "nM", "EMax (agonist)": "%"}, "values": [{"binder": "H[dS]DGIFADSYSRYRKQ[Nle]AVKKYLAAVS(βGlc)L-NH2 (ends and bridges not checked)", "note": "[HsDGIFADSYSRYRKQÑAVKKYLAAV-Ser(Glc)-L]", "EC50 (agonist)": 1620, "EMax (agonist)": 78}, {"binder": "B1", "EC50 (agonist)": 4.8, "EMax (agonist)": 90}, {"binder": "B2", "EC50 (agonist)": 1370, "EMax (agonist)": 85}, {"binder": "H[dS]DGIFTDSYSRYRKQ[Nle]AVKKYLAALS(βGlc)L-NH2 (ends and bridges not checked)", "note": "[HsDGIFTDSYSRYRKQÑAVKKYLAAL-Ser(Glc)-L]", "EC50 (agonist)": 5.9, "EMax (agonist)": 93}, {"binder": "B3", "EC50 (agonist)": 1.3, "EMax (agonist)": 90}, {"binder": "HSDGIFTDSYSRYRKQLAVKKYLAAVLS(melibiose)-NH2", "note": "[HSDGIFTDSYSRYRKQLAVKKYLAAVL-Ser(Mel)]", "EC50 (agonist)": 0.55, "EMax (agonist)": 102}, {"binder": "HSDGIFTDSYSRYRKQMAVKKYLAAVL (ends and bridges not checked)", "note": "[PACAP1-27]", "EMax (agonist)": 100}, {"binder": "B4", "EC50 (agonist)": 78.8, "EMax (agonist)": 93}]}, {"molecular_target": "T2, VPAC2", "T2 sequence (P41587 whole entry, species assumed, looked up)": "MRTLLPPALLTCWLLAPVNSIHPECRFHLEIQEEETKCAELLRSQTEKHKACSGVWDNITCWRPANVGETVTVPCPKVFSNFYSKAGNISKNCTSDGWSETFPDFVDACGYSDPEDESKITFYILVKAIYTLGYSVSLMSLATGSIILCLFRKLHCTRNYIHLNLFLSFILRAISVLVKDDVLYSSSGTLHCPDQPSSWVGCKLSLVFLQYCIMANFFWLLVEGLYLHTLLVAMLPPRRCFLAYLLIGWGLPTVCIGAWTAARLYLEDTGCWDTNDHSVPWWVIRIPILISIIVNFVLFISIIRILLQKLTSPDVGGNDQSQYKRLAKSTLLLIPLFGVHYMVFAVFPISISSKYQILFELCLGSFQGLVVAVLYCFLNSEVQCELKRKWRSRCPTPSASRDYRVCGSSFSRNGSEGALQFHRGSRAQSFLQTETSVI", "test": "cell-based or functional assay", "units": {"EC50 (agonist)": "nM", "EMax (agonist)": "%"}, "values": [{"binder": "B1", "EC50 (agonist)": 654, "EMax (agonist)": 107}, {"binder": "H[dS]DGIFTDSYSRYRKQ[Nle]AVKKYLAALS(βGlc)L-NH2 (ends and bridges not checked)", "note": "[HsDGIFTDSYSRYRKQÑAVKKYLAAL-Ser(Glc)-L]", "EC50 (agonist)": "> 2500", "EMax (agonist)": -95}, {"binder": "B3", "EC50 (agonist)": 241, "EMax (agonist)": 104}, {"binder": "HSDGIFTDSYSRYRKQLAVKKYLAAVLS(melibiose)-NH2", "note": "[HSDGIFTDSYSRYRKQLAVKKYLAAVL-Ser(Mel)]", "EC50 (agonist)": 9.4, "EMax (agonist)": 86}, {"binder": "B4", "EC50 (agonist)": "> 2500", "EMax (agonist)": -42}]}]}
